Data as given in patent publication US20130045184A1 (published 2013).

Target: T1, sperm FA-1 derived peptide (peptide 1, 35 residue peptide designed from antigen FA-1), biotinylated (biotin at the C-terminus, printed as '(SEQ ID NO: 1) - - - Biotin')
T1 peptide: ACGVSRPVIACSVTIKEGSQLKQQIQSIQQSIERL
Test: phage ELISA, anti-phage HRP antibody (antibody to PVIII), OD
Procedure: Infected E. coli TG-1 with panning output phages (as described above) were plated to yield individual colonies. These colonies were picked into 100 μl YTAG media in wells of a flat bottom sterile 96-well plate and grown at 30° C. shaker at 150 RPM ON. 10 μl of phage were transferred into a fresh 96-well plate containing 90 μl of YTAG+2.5 μl /ml (5×10⁸ CFU) of M13KO7 helper phage and grown at 37° C. without shaking for 30 min following shaking at 150 RPM for 30 minutes. Plates were centrifuged at 4000 RPM for 5 minutes at 14° C. and the supernatant was discarded. 200 μl /well of YTAK (with Kanamycin) was added and the plate was left to grow at 30° C. shaker at 150 RPM overnight. The bacteria plate was then centrifuged at 4000 RPM for 5 minutes at 4° C. and 100 μl of the supernatant mixed with 100 μl of PBST was used for the ELISA.
100 μl /well of antigen and control antigen were plated in ELISA plates at 4° C. overnight to coat the plates. The ELISA plates were washed once with washing buffer (300 μl/well of PBST) and blocked with 3% milk/PBS for 1 hr at room temperature (RT). […] The reaction was then stopped with […] of 1 M HCL solution plates were read plates at […]. Detection was achieved using a horseradish peroxidase (HRP)-tagged anti-phage antibody and the color resulting from the substrate-enzyme reaction was read with an automated ELISA reader.

B1: scFv J102 (scFv)
scFv: MAEVQLLESGGGLVQPGGSLRLSCAASGFTFSDHDMHWVRQAPGKGLEWVSGISWKSDSMAYRDSVKGRFTISRDNSKNTLYLQMNSLRAEDTAVYYCARDQEHFDFDYWGQGTLVTVSSGSAGGGGSGGGGSGGGGSDIVLTQPPSASGTPGQRVTISCSGSSSNLGSNTVNWYQQLPGKAPKLLIYDNNQRPSGVPDRFSGSKSGTSASLAISGLRSEDEADYYCAAWDDSLSGLVFGTGTKLTVL
notes: Human-derived scFv from a phage display library; also called Clone J102
Question: Does B1 bind?
Answer: Result: binds
